Assay results: the DeepSol protein solubility set

test: soluble on expression in E. coli; label from the status in PepcDB or PDB records

Sequence	soluble on expression in E. coli
SMFIKKIKAKANNNEINVIIEIPMNSGPIKYEFDKESGALFVDRFMQTTMSYPCNYGFIPDTLSNDGDPVDVLVVAHHPVVPGSVIKCRAIGVLMMEDESGLDEKIIAVPTSKLDITFDHIKELDDLCEMLKKRIVHFFEHYKDLEKGKWVKVTGWGDKVKAETLIKEGIDRN	soluble
MGSDKIHHHHHHMSSATHYILTWQCPDNTGVLAKVSQSLFSHGAFITETSQYSDPYSETFFSRIAFDDRNLTVSSSEFVKALNELAKPLAMQYQLRKRADVPNVLIAVSKDDHCLVSLLTKWRSGALPINIVGVISNHQYCQALSEWHNVPFYHLPVNAETKLEQEAQITDLMEELNIDLLVLARYMQILSDGLCQQLQGKAINIHHSFLPSFKGARPYHQAHARGVKVIGATAHYVTANLDEGPIIAQEVKPINHAFTIEQMVHMGHDLEATALSHAVRIHAEQRVCINGDKTVILA	not soluble
DRLGQPPSGYGVLLSVHEDKTVDVFTSGRKMRLTCSPNIDTDTLALGQTVRLNEALTIVEAGTYEQVGEISTLREVLDDGLRALVVGHADEERIVWLAAPLAAVFADPEADIIAYDADSPTRKLRPGDSLLVDTKAGYAFERIPKAEVEDLVL	soluble
MGSDKIHHHHHHMKNYKFLVPILLVALLGGSVYKTYSDREKINKQYDNDITQARQNRKLEVYVNAEEDYLDALKLKDSAKLRAELGEMYIEAEDLRTAAKWGESLISEYPKEQVGYEFLIQVYLEQKDYASCFRIKDEADGLKISSKKIEEIISDIKYEYYLEGEYAQVEEFSNGYAAVKKEKKWGYLNSKGHRVIESEFEEAGAFAKEVAPVIDDKGRAFYIDNEGNRKIVIDFVDNIEKLGYMSMDNIFPVNDGKKWSLYSLDSKKKIAGDYDEVSAMGNGVAAVKSDDKWSLIDTKGKKVTKDKYDSVVMDSKGIVCRNDRVFAKQNGYYYLFDSKGNKVVKTKFDDARLFADDGYAAVCVDGKWGFVDKDGKQVIKPQFNEAHSFSNGLAAVRFSNGWGYVDEKGNKVIETGFDDACDFNEQGKTFVKTDDKWQVLTLYLYNHES	not soluble
MPPCYPFMLSWKGWARDSPGRPGGAMRAHIITYGCQMNEYDSHLVASELVSLGWELVDSVEEADFVLVNTCAVRGKPVEKVRSLLGQLRKEKERRGLLIGMMGCLAQLDEGQQMAKKFGVDVLLGPGALTSLPEALKANERFWDLTFREDVLDYIPPPPKGALSAHVTIIRGCNHHCTYCIVPTTRGPEVSRHPDLILKEIELLKQAGVVEVTLLGQNVNSYGKDQPGFPSFAELLRMVGGMGIPRVRFLTSHPVNFTDDIIEAIAETPAICRYIHLPVQSGSDRVLRRMAREYRRAHYLERIRKIREALPDAVLSTDIIVGFPGETEEDFQETLSLYDEVGYDQAYMFIYSPRPGTPAYKHFQDLPREVKVERLMRLIEKQKEWSYRRNLEWVGKTVEVLVRGEAKEEGFVQGHDRGNHPVLVPASQAPVPGLYQVEIKQATPHLLFGEVVGAEAPAPIPLPVA	soluble
MTHDNIDILVVDDDISHCTILQALLRGWGYNVALANSGRQALEQVREQVFDLVLCDVRMAEMDGIATLKEIKALNPAIPVLIMTAYSSVETAVEALKTGALDYLIKPLDFDNLQATLEKALAHTHSIDAETPAVTASQFGMVGKSPAMQHLLSEIALVAPSEATVLIHGDSGTGKELVARAIHASSARSEKPLVTLNCAALNESLLESELFGHEKGAFTGADKRREGRFVEADGGTLFLDEIGDISPMMQVRLLRAIQEREVQRVGSNQIISVDVRLIAATHRDLAAEVNAGRFRQDLYYRLNVVAIEVPSLRQRREDIPLLAGHFLQRFAERNRKAVKGFTPQAMDLLIHYDWPGNIRELENAVERAVVLLTGEYISERELPLAIASTPIPLGQSQDIQPLVEVEKEVILAALEKTGGNKTEAARQLGITRKTLLAKLSR	soluble
SDRLIDKMAGEERQKIELWAQATKIVASDDEAVLAKDLVLQIIQSNNSIPVILCDPKDSIISYNNIDIPAGKPALPYLQKKLRYFKEGYPPIRIEIEARRPQFLYYSDSQTLRR	not soluble
MKKPNHSGSGQIRIIGGQWRGRKLPVPDSPGLRPTTDRVRETLFNWLAPVIVDAQCLDCFAGSGALGLEALSRYAAGATLIEMDRAVSQQLIKNLATLKAGNARVVNSNAMSFLAQKGTPHNIVFVDPPFRRGLLEETINLLEDNGWLADEALIYVESEVENGLPTVPANWSLHREKVAGQVAYRLYQREAQGESDAD	soluble
MKIVCSKEQLMEGINVVQKAVPTKATLTILEGILLEAYDNFKMTGNDLELGIECLIDADILEKGSIVLNSKMFGDIVRRLPDSEVLIEVKENNTVIIECDNSHFELRGMPSDSFPSLPSIEKENMIKVSQKAIRDMIRQTLFAVSTEGTRPILTGSLIECAGNEITFVSIDGFRMALRKNFNNEGFSEFSVVVPAKTLSEIGKILQPVDEDIYIYSSQNQILFEIGNCKVVSRLLEGEYLNYKSIIPPEYETSVRLRTEDLLSSLERASLITSDEKKYPVKFNIIDDKIIITSNTEIGAVREEIRVEVNGSNMEVGFNPRYFIEALRVIDDELVDIYFNSSVGPCTIRPLEGDSFAYMILPVRINK	soluble
MSQKRSLVFAIRDFPPGCGTHIDVSSSLNHPAEKAFKHPRTGDVSGENLSFAEAKPEGTCLKRESADQDHIFAAPEHNAKREPAGQDHVVAATTVAYATSSHRQKVEIGNSDCDPTPREKVLEVLSLFKQVYNQLDRDKKARRGGDFLDATSRIDLKTLTVLEKMGKQVNTEKRIGSVPGINIGDVFQYKTELRVVGLHSKPMCGIDYIKLGDDRITTSIVASEGYGYNDTYNSGVMVYTGEGGNVINKQKKTEDQKLVKGNLALATSMRQKSQVRVIRGEERLDRKGKRYVYDGLYMVEEYWVERDVRGKSVYKFKLCRIPGQLPLT	not soluble
MSRNLDSPVQTQMAVAVFKTPLTGASKMEGKQHHKHQHLQRQSSGRRVFVQTETGCVLGMELDRSDNVHTVKRRLQIALNFPTEESSLTYGDMVLTNDLSAVRNDSPLLLKRNFMHRSSSTPCLSPTGRDLQQKDRSGPIEILGHSDCFSIVKHMVKDIVKAMKMGVEPLPVHSGLGGAYYFRNKRGESVAIVKPTDEEPFAPNNPKGFVGKALGQPGLKSSVRVGETGFREVAAYLLDYGRFANVPPTALVKITHSVFNVNDGVKGNKPREKKLVSKIASFQKFVAHDFDASDHGTSSFPVTSVHRIGILDIRIFNTDRHGGNLLVKKLDGVGMFGQVELIPIDHGLCLPETLEDPYFEWIHWPQASLPFSDEEVDYIQSLDPVKDCDMLRRELPMIREACLRVLVLCTIFLKEASAYGLCLAEIGEMMTREFRPGEEEPSELEVVCIEAKRSVTERDVFSPRSDVVGEAEFQFDLDCDDLESVYSSKIQLTDDYFTKNPFSNGRSSLGKLEESIKEEEEDEEEEEDKTENTVPMIIMKDSFFSSAAFHDKAPSLSKLSTSMKNTHLSDTTRKNPKPLTRGKSENTSSGHKSANEQLPVSASFVKVADMKEDEWVLFLERFQELLGPAFAKRKTATLSKRQRLGTSCQF	not soluble
MGSDKIHHHHHHMSSKVAKELADFLLQIEQRSQFHAGYPYNLSCDYSAIGKFFNHLLNNAGDPYIEPDFGLHSRKFEQEVLSFFAHLYKIPENQFWGYVTAGGTEGNLYGIFLAREIYPNGILYSSQDSHYSIPKAAKLFRIQHNVVNSQINGEMNYDHFEQLLSENRRYPAIINLNIGTTVKGAIDNLDKVLEILERNQIKDYYIHCDAALSGLILPFLDGAPQVNFQKPIDSVAISAKFIGSPLPCGVVLTKKKWVEKVETEIEYIGSKDTTILGSRNGHTPLILWYAVQTRGYDGLAKEAKTCIHNAQYLFQQLQIREYPCMLNNFSNTVVFQKPSQRLIKKWQLAVFENWAHMIVMQNIVREKIDIFINELLLEQGLLNNAKNFQLQPVLQH	not soluble
MNKEALVQVAEEVRRATGLPVGWRDVERTLGALRATRDLWEAVRLSRVPLRFLVPIWEGLARRGLLRVEEGLDLLAEVPAPRPGEAACPACEGRGLVGERLPGRAAERFLAWAKERPEAIQDFDQGYVTPESTLARVALAWNWGDLEGKEVLVLGDDDLTGLAAALTGLPKRVVVLDADPRIVRFLERAAKAEGLPLEAHVHDLREPLPEAWVHAFHTFFTDPVEGPLGLQAFVGRGLLALEGEGCAGYVGLTHVEASLAKWADFQRFLLENGAVITELRDGFHVYENWGYIEQMRAWPWLPVKRRPEKPWYTSALIRLELLRRADLENARVEGDLQDEEATTY	soluble
MSLRVTYRRRLSYNTTSNKKRLVKTPGGRLVVQYIKKRGQIPKCRDTGVKLHGITPARPIALRLLKRNERTVTRAYGGCLSPNAVKERITRAFLVEEQKIVNKVIKHQKD	not soluble
MVRSMLYATDLGLYAPYVMQHALALARTFDAGLYVVHVVEPMGLFAESVLQSYLGEEALQELHGKGAHAFMEGIEQRMLDGFREELGEGHSDLSLIRTVRVVQGEPASVIIEQAHKLEVDLLVLGRHSASAQEGASIGRTAARILQSSGVPVYMVPIMSKALCQKGC	not soluble
MRTAVIIPFYQREAGILSRALDSVDGQILPEGHSLTVFVIDDESPVSARSEVEGRQGKVPVRLIAQKNGGPGAARNAGLDAVAAEGFDHVAFLDSDDIWQPTHLADALDLLARGYDFHFCDHQRTDDDITYFERTPALRRMREERHAGVTVLDAEAPILAFDQPSIMAASVDTYLSQTSTVVVRQSFVETLRFDPRLRNAGEDQLFWLSLIAAGARTVVSWKMNVLCGRGVNVYFDAFDWKSTKVVDRTGYMLMFFHTVGRRLSLTASDRRTVADRIRRYRRAYSYLFLRALLQGRVPTLSLTWKLAALDPGLVPAMPLRFLAVLPNREAESLQWLEHHHHHH	not soluble
MAHHHHHHMNAVDAEYVEHHGVDNLIIPISVSEPKETKRGDYAYCVDVVVHTLLIKKCSRGHRLLEHLTEKLVTLSIEWIRSECGVQLLPRSCRIAGNPLYFDDTVDTPKSIASIIENAAELLQRKSNSSNSRKDEQDTIPDALNLRKAQVPESKQPLIREVISTPAIKKGFLVDGNARLYGPDGSSEGSSKAPDPLAHIPESLRERCRIIDTRNMEGLTASPAKTMKSVDKTANTHTSGTFVAPTSEPQGKDEANWARFSIERTGEKVIVRFLAPDSVSSLHDIDLSATKDTLEINGSVTQLPVPIVTDDVRAKFVKATRILVVTCLIDVS	not soluble
MKVYLESFGCSASQASAEIMKASIGKLGHELLSPENAGQAEVYICNSCTVKYTTEQKILYKIRSMGEKGVQVIVSGCMPEVQLEDILHANPEAHILGVNAVSRLGDLLSTIEQRKKTGIPGGERLEIRTSEPQGFLNVPRERSNPNIHICQISQGCNFACSYCIVKHARGKLLSFPPEEIIEDIRSAVADGCREIWLTSQDDSQYGMDTGVKLPELLRAISEIPGDFKVRVGMMNPFSVLPILDDLVDAFDSDKIFKLLHLPIQSASHSVLKKMNRLHKMDSVDEIITKFRAHFEDLSLFTDIIVGFCDETDEDFEETIEWVKKYRPEKINISRYSPRPHTKAFSFRNLDSRISVKRSHQLHKVCEQIKIESKNEMIGWKGRVFVSKYTEIGDVLTRTDSYRPVVISGSDLRPGEYAEVKITGAKPGYFLGKLVSLEHHHHHH	soluble
